# From patent US20070092942A1, “Ubiquitin specific enzymes of family herpesviridae” (priority 2005, published 2007)
# B1: His6UL36^USP: His-tagged recombinant 533 N-terminal amino acids of HSV-1 UL36, ubiquitin-specific cysteine protease (protein)
# chain: MGGGNNTNPGGPVHKQAGSLASRAHMIAGTPPHSTMERGGDRDIVVTGARNQFAPDLEPGGSVSCMRSSLSFLSLIFDVGPRDVLSAEAIEGCLVEGGEWTRATAGPGPPRMCSIVELPNFLEYPGARGGLRCVFSRVYGEVGFFGEPAAGLLETQCPAHTFFAGPWALRPLSYTLLTIGPLGMGLFRDGDTAYLFDPHGLPEGTPAFIAKVRAGDMYPYLTYYTRDRPDVRWAGAMVFFVPSGPEPAAPADLTAAALHLYGASETYLQDEAFSERRVAITHPLRGEIAGLGEPCVGVGPREGVGGPGPHPPTAAQSPPPTRARRDDRASETSRGTAGPSAKPEAKRPNRAPDDVWAVALKGTPPTDPPSADPPSADPPSAIPPPPPSAPKTPAAEAAEEDDDDMRVLEMGVVPVGRHRARYSAGLPKRRRPTWTPPSSVEDLTSGEKTKRSAPPAKTKKKSTPKGKTPVGAAVPASVPEPVLASAPPDPAGPPVAEAGEDDGPTVPASSQALEALKTRRSPEPPGADLAQLF
# modifications: left off: small tags and cut ends
# notes: His-tagged recombinant 533 N-terminal amino acids of HSV-1 UL36, ubiquitin-specific cysteine protease
# Biological target: T1, His6UL36^USP (Human herpesvirus 1, UniProt P10220)
# T1 construct: amino acids 1 to 533 of the UL36 gene product from HHV HSV1; 6-His (pET-28a(+)) (N); 6-His (pET-28a(+)) (C); made in house; host or cells: E. coli BL21 or BL21 RIPL
# Experiment: Cleavage of Ub-AMC by recombinant UL36^USP
# Type: biochemical, HSV-1
# Details: ~0.1 pmol enzyme, Ub-AMC, 25° C.
# Protocol: Recombinant UL36^USP and UL36^USP/C65A (˜0.1 pmol) were incubated in 125 μl kinetics buffer (50 mM HEPES, pH 7.5, 0.5 mM EDTA) supplemented with 1 mM DTT at room temperature for 10 minutes. To this was added 75 μl of Ub-AMC (250 nM in kinetics buffer) and AMC liberation was measured at 25° C. For inhibition experiments, one of UbVME, SUMO-VME, ISG15-VS, or Nedd8-VS (10 pmol) was incubated with recombinant UL36^USP (˜0.1 pmol) for 30 minutes at room temperature. To this was added 75 μl of Ub-AMC (250 nM in kinetics buffer) and AMC liberation was measured. Cleavage experiments were performed in triplicate. All fluorescence measurements were made using a Wallac Victor^3 1420 fluorescence/luminescence plate reader (Perkin Elmer) using 380 nm excitation and 460 nm emission wavelengths, with 5 second intervals between measurements. Data were exported as an Excel file and plotted as mean values of replicate experiments using Kaleidagraph v3.6 (Synergy Software).
# In a typical eukaryotic cell, the presence of multiple DUBs, whose substrate pool and catalytic activities may overlap, confounds straightforward analysis of the activity of any one particular DUB. […] The proteins were expressed, purified over Ni-NTA resin and evaluated for their ability to cleave Ub C-terminal 7-amido-4-methylcoumarin (Ub-AMC) (Dang et al., 1998). […]
molecule,measurement,value
B1,Turnover number for Ub-AMC cleavage,~6 min⁻¹
